# From US11719696B2, “Methods and compounds for diagnosing threonyl-tRNA synthetase-associated diseases and conditions” (The University of Vermont and State Agricultural College, priority 2012, dated 2023)
# B1: TARS: N-terminal His6-tagged human threonyl-tRNA synthetase expressed and purified from E. coli (protein, UniProt P26639 1-723, looked up)
# Threonine--tRNA ligase 1, …: MFEEKASSPSGKMGGEEKPIGAGEEKQKEGGKKKNKEGSGDGGRAELNPWPEYIYTRLEMYNILKAEHDSILAEKAEKDSKPIKVTLPDGKQVDAESWKTTPYQIACGISQGLADNTVIAKVNNVVWDLDRPLEEDCTLELLKFEDEEAQAVYWHSSAHIMGEAMERVYGGCLCYGPPIENGFYYDMYLEEGGVSSNDFSSLEALCKKIIKEKQAFERLEVKKETLLAMFKYNKFKCRILNEKVNTPTTTVYRCGPLIDLCRGPHVRHTGKIKALKIHKNSSTYWEGKADMETLQRIYGISFPDPKMLKEWEKFQEEAKNRDHRKIGRDQELYFFHELSPGSCFFLPKGAYIYNALIEFIRSEYRKRGFQEVVTPNIFNSRLWMTSGHWQHYSENMFSFEVEKELFALKPMNCPGHCLMFDHRPRSWRELPLRLADFGVLHRNELSGALTGLTRVRRFQQDDAHIFCAMEQIEDEIKGCLDFLRTVYSVFGFSFKLNLSTRPEKFLGDIEVWDQAEKQLENSLNEFGEKWELNSGDGAFYGPKIDIQIKDAIGRYHQCATIQLDFQLPIRFNLTYVSHDGDDKKRPVIVHRAILGSVERMIAILTENYGGKWPFWLSPRQVMVVPVGPTCDEYAQKVRQQFHDAKFMADIDLDPGCTLNKKIRNAQLAQYNFILVVGEKEKISGTVNIRTRDNKVHGERTISETIERLQQLKEFRSKQAEEEF
# modifications: N-terminal His6 tag
# notes: N-terminal His6-tagged human threonyl-tRNA synthetase expressed and purified from E. coli
# Columns and labels:
# [1] = test system: chorioallantoic membrane (CAM); test: Chick chorioallantoic membrane (CAM) assay; assay type: in vivo, chicken
# Experimental: Chick Chorioallantoic Membrane Assay—Fertilized chicken eggs (Sunrise Farms, Catskill, N.Y.) day 1-2 post-laying were incubated in a humidified incubator at 37° C. for 72 h. Cleaned eggs were cracked and plated in a sterile 10 cm^2 tissue culture-treated dish and incubated at 37° C. for another 7 days. On developmental day 10, 1 mm sterile gelatin sponge pieces (Surgifoam®; Johnson & Johnson Wound Management, Somerville, N.J.) were placed within the outer one-third of the membrane between large vessels. 40 μg/ml human bFGF and 2 μg/ml human VEGF were used as pro-angiogenic control compounds; 100 μg/mL retinoic acid (Sigma-Aldrich, St. Louis, Mo.) diluted in phosphate-buffered saline (PBS) was used as an angiostatic control. All compounds were applied in 10 μl to the CAM every 24 h for 72 h. Images were taken using a Leica MZ6 stereomicroscope every 24 h. Compounds were scored according to a modified version of Intensity Scoring as previously described (Ribatti, Nico et al. 2006). Briefly, each experimental condition was given a blinded score from 0-5 based on the change in the extent of vessel convergence and formation in proximity to the sponge from day 0 to day 3. Total score is averaged individual experimental condition scores from at least 15 replicates.
# Fertilized chicken embryos were cultured ex-ova and, starting at developmental day 10, agents were applied daily to gelfoam sponges on the CAM. Images were recorded daily over 72 h and scored blindly according to a modified version Intensity Scoring as previously described (Ribatti, Nico, 2006). Additional details regarding methods are provided in the Methods and Materials section of Example 1.
# [2] = test system: HUVECs; test: VEGF secretion by ELISA; assay type: cell-based, Human; details: purified recombinant TARS added to cell media, 24 h
# Experimental: ELISA and Lactate Dehydrogenase Assays—Confluent HUVEC cultures (passage 4) were incubated at 37° C. in Clonetics® EGM®-2 modified with 0.2% fetal bovine serum with the addition of 50 ng/ml human VEGF or 50 ng/ml human TNF-α for 6 h as indicated. Culture media supernatants were tested for levels of secreted TARS protein using the Threonyl tRNA Synthetase (TARS) ELISA Kit (USCN Life Science, Wuhan, Hubei, PRC) according to manufacturer's instructions. Cell membrane integrity was confirmed using the lactate dehydrogenase assay CytoTox-ONE™ Homogeneous Membrane Integrity Assay (Promega, Madison, Wis.) according to manufacturer's instructions and reported as percent cytotoxicity relative to a lysis control. Levels of secreted VEGF were measured using the Human VEGF ELISA kit (Thermo Scientific) per manufacturer's instructions.
# [3] = test system: HUVECs; test: Endothelial cell proliferation assay (alamarBlue); assay type: cell-based, Human; details: HUVECs in low serum (0.2% FBS) media
# Experimental: Endothelial Cell Proliferation Assay—The […] alamarBlue® (Invitrogen) reagent was used to assess cell proliferation (Ahmed, Gogal et al. 1994). HUVECs were seeded in a 96-well dish (1×10^3 cells/well) and grown for 48 h in EGM®-2 media. Cells were incubated in 0.2% FBS EGM®-2 media or EGM®-2 complete media as indicated; VEGF (50 ng/ml) and media alone served as controls. After 48 h, 72 h, or 96 h in culture, 10 μl/well premixed alamarBlue® (Invitrogen) was added and after 3 h at 37° C. the amount of reduced alamarBlue® was quantified by fluorescence (excitation at 530 nm, emission at 590 nm) on a microplate reader (Synergy™ HT, BioTek, Winooski, Vt.).
# [4] = test system: Human umbilical vein endothelial cells (HUVECs); test: In vitro endothelial tube formation assay; assay type: cell-based; details: 100 nM purified recombinant protein in low-serum media (0.2% FBS), 6 h
# Experimental: In vitro Tube Formation Assay—Tube formation assays were performed as described (Arnaoutova and Kleinman 2010; Cassavaugh, Hale et al., 201). Human Umbilical Vein Endothelial Cells (HUVECs) were seeded in 48-well plates (1.5×10^4 cells/well) coated with 100 μl of Matrigel™ Basement Membrane Matrix Growth Factor Reduced (BD Biosciences, San Jose, Calif.) and incubated in Clonetics® EGM®-2 complete media (Lonza, Annandale, N.J.) or EGM®-2 with reduced serum (0.2% fetal bovine serum). Cells were incubated at 37° C. for 6 h then fixed in 10% formalin. Fixed samples were imaged by phase-contrast microscopy or stained with Oregon Green 488 Phalloidin (Molecular Probes, Eugene, Oreg.) then imaged with fluorescence microscopy (2× objective). Number of tubes and tube lengths (in pixels) were quantified using the Simple Neurite Tracer (Longair, Baker et al. 2011) plug-in on ImageJ software (NIH). Statistical analysis of one-way ANOVA was performed with GraphPad Software. Multiple comparisons were performed using the Tukey Test.
molecule,measurement,setting,value
B1,sensitivity of the protein's CAM angiogenic effect to BC194,[1]; protein co-applied with BC194,sensitive to BC194
same,CAM vessel formation / vascularization on application of protein,"[1]; purified protein applied daily to sponge on CAM, 72 h",stimulated vessel formation
same,secretion of VEGF (ELISA),[2],did not induce secretion of VEGF
same,cell proliferation with protein,[3],did not exert a significant effect
same,number of tube branches on addition of protein,[4],significantly increased the number of tube branches
